Source: patent US20250352667A1
Changes are numbered by the printed parent chain. Names and notes keep the numbering of the source. Each block holds one binder with its values, some of them ahead of it.

Legend:
[1] = molecular target: KEAP1 (wild-type full-length), His-tagged (human) (UniProt Q14145); test: AlphaScreen; FLAG-NRF2 wt isoform 1 19.2 nM, His-KEAP1 150 nM; Rep 1; positive control for I86V
[2] = molecular target: KEAP1 (wild-type full-length), His-tagged (human) (UniProt Q14145); test: AlphaScreen; 4.8 nM FLAG-NRF2, 150 nM His-KEAP1; signal against NRF2 only; control for I28V
[3] = molecular target: KEAP1 (wild-type full-length), His-tagged (human) (UniProt Q14145); test: AlphaScreen; FLAG-NRF2 wt isoform 1 38.4 nM, His-KEAP1 150 nM; Rep 2; positive control for Q75R
[4] = molecular target: KEAP1 (wild-type full-length), His-tagged (human) (UniProt Q14145); test: AlphaScreen; 2.4 nM FLAG-NRF2, 150 nM His-KEAP1; Rep 2; control for I86V
[5] = molecular target: KEAP1 (wild-type full-length), His-tagged (human) (UniProt Q14145); test: AlphaScreen; FLAG-NRF2 wt isoform 1 38.4 nM, His-KEAP1 150 nM; Rep 2; positive control for I86V
[6] = molecular target: KEAP1 (wild-type full-length), His-tagged (human) (UniProt Q14145); test: AlphaScreen; 307.2 nM FLAG-NRF2, 150 nM His-KEAP1; signal against NRF2 only; control for I86V
[7] = molecular target: KEAP1 (wild-type full-length), His-tagged (human) (UniProt Q14145); test: AlphaScreen; 614.4 nM FLAG-NRF2, 150 nM His-KEAP1; signal against NRF2 only; control for I86V
[8] = molecular target: KEAP1 (wild-type full-length), His-tagged (human) (UniProt Q14145); test: AlphaScreen; FLAG-NRF2 wt isoform 1 1228.8 nM, His-KEAP1 150 nM; Rep 2; positive control for Q75R
[9] = molecular target: KEAP1 (wild-type full-length), His-tagged (human) (UniProt Q14145); test: AlphaScreen; NRF2 wt isoform 1 9.6 nM, KEAP1 150 nM; signal against NRF2-only control; control for I86V
[10] = molecular target: KEAP1 (wild-type full-length), His-tagged (human) (UniProt Q14145); test: AlphaScreen; 19.2 nM FLAG-NRF2, 150 nM His-KEAP1; signal against NRF2 only; control for I28V
[11] = molecular target: KEAP1 (wild-type full-length), His-tagged (human) (UniProt Q14145); test: AlphaScreen; FLAG-NRF2 I86V 19.2 nM, His-KEAP1 150 nM; Rep 3
[12] = molecular target: KEAP1 (wild-type full-length), His-tagged (human) (UniProt Q14145); test: AlphaScreen; FLAG-NRF2 I86V 1228.8 nM, His-KEAP1 150 nM; Rep 1
[13] = molecular target: KEAP1 (wild-type full-length), His-tagged (human) (UniProt Q14145); test: AlphaScreen; FLAG-NRF2 I86V 19.2 nM, His-KEAP1 150 nM; Rep 2
[14] = molecular target: KEAP1 (wild-type full-length), His-tagged (human) (UniProt Q14145); test: AlphaScreen; 153.6 nM FLAG-NRF2, 150 nM His-KEAP1; Rep 2
[15] = molecular target: KEAP1 (wild-type full-length), His-tagged (human) (UniProt Q14145); test: AlphaScreen; 76.8 nM FLAG-NRF2, 150 nM His-KEAP1; Rep 2
[16] = molecular target: KEAP1 (wild-type full-length), His-tagged (human) (UniProt Q14145); test: AlphaScreen; 38.4 nM FLAG-NRF2, 150 nM His-KEAP1; against wild-type NRF2 isoform 1 = 100%
[17] = molecular target: KEAP1 (wild-type full-length), His-tagged (human) (UniProt Q14145); test: AlphaScreen; 9.6 nM FLAG-NRF2, 150 nM His-KEAP1 (same value as in Table 27)
[18] = molecular target: KEAP1 (wild-type full-length), His-tagged (human) (UniProt Q14145); test: AlphaScreen; 19.2 nM FLAG-NRF2, 150 nM His-KEAP1; Rep 1
[19] = molecular target: KEAP1 (wild-type full-length), His-tagged (human) (UniProt Q14145); test: AlphaScreen; 2.4 nM FLAG-NRF2, 150 nM His-KEAP1; Rep 2
[20] = molecular target: KEAP1 (wild-type full-length), His-tagged (human) (UniProt Q14145); test: AlphaScreen; over 9.6, 19.2 and 38.4 nM NRF2; 150 nM His-KEAP1
[21] = molecular target: KEAP1 (wild-type full-length), His-tagged (human) (UniProt Q14145); test: AlphaScreen; NRF2 Q75R 307.2 nM, KEAP1 150 nM; signal against NRF2-only control
[22] = molecular target: KEAP1 (wild-type full-length), His-tagged (human) (UniProt Q14145); test: AlphaScreen; FLAG-NRF2 Q75R 153.6 nM, His-KEAP1 150 nM; Rep 1
[23] = molecular target: KEAP1 (wild-type full-length), His-tagged (human) (UniProt Q14145); test: AlphaScreen; FLAG-NRF2 Q75R 1228.8 nM, His-KEAP1 150 nM; Rep 1
[24] = molecular target: KEAP1 (wild-type full-length), His-tagged (human) (UniProt Q14145); test: AlphaScreen; FLAG-NRF2 Q75R 19.2 nM, His-KEAP1 150 nM; Rep 2
[25] = molecular target: KEAP1 (wild-type full-length), His-tagged (human) (UniProt Q14145); test: AlphaScreen; mean over 9.6, 19.2 and 38.4 nM NRF2 Q75R, KEAP1 150 nM; relative to wild-type NRF2 isoform 1
[26] = molecular target: KEAP1 (wild-type full-length), His-tagged (human) (UniProt Q14145); test: AlphaScreen; NRF2 Q75R 76.8 nM, KEAP1 150 nM; signal against NRF2-only control
[27] = molecular target: KEAP1 (wild-type full-length), His-tagged (human) (UniProt Q14145); test: AlphaScreen; NRF2 Q75R 19.2 nM, KEAP1 150 nM; signal against NRF2-only control

Sequence of KEAP1 (wild-type full-length), His-tagged (human) (Q14145 2-624 limits assumed): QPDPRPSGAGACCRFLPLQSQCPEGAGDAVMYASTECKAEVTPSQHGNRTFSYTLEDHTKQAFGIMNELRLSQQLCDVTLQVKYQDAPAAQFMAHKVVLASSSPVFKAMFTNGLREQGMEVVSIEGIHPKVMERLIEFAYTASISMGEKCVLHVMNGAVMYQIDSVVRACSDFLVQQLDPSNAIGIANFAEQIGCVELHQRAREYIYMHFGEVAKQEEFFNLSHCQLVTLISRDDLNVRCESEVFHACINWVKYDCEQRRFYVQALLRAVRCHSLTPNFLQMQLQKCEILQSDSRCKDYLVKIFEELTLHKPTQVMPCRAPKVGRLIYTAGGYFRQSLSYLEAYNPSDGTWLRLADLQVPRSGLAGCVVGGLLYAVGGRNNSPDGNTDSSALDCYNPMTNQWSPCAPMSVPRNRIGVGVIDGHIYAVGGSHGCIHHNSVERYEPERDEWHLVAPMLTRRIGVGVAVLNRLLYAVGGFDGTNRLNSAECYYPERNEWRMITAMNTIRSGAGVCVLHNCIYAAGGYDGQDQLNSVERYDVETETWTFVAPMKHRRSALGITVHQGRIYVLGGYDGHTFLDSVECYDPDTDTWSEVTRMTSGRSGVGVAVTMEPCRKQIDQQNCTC

A-counts (NRF2 plus KEAP1) [1]: 3300 A-counts
S/N [2]: 3.2
A-counts (NRF2 plus KEAP1) [3]: 1450 A-counts
A-counts [4]: 959 A-counts
A-counts (NRF2 plus KEAP1) [5]: 2850 A-counts
S/N [6]: 1.5
S/N [7]: 1.1
A-counts (NRF2 plus KEAP1) [8]: 1360 A-counts
S/N [9]: 3.6
S/N [10]: 4.2
B1: NRF2 isoform 1 (wild-type full-length), FLAG-tagged (protein)
chain: MMDLELPPPGLPSQQDMDLIDILWRQDIDLGVSREVFDFSQRRKEYELEKQKKLEKERQEQLQKEQEKAFFAQLQLDEETGEFLPIQPAQHIQSETSGSANYSQVAHIPKSDALYFDDCMQLLAQTFPFVDDNEVSSATFQSLVPDIPGHIESPVFIATNQAQSPETSVAQVAPVDLDGMQQDIEQVWEELLSIPELQCLNIENDKLVETTMVPSPEAKLTEVDNYHFYSSIPSMEKEVGNCSPHFLNAFEDSFSSILSTEDPNQLTVNSLNSDATVNTDFGDEFYSAFIAEPSISNSMPSPATLSHSLSELLNGPIDVSDLSLCKAFNQNHPESTAEFNDSDSGISLNTSPSVASPEHSVESSSYGDTLLGLSDSEVEELDSAPGSVKQNGPKTPVHSSGDMVQPLSPSQGQSTHVHDAQCENTPEKELPVSPGHRKTPFTKDKHSSRLEAHLTRDELRAKALHIPFPVEKIINLPVVDFNEMMSKEQFNEAQLALIRDIRRRGKNKVAAQNCRKRKLENIVELEQDLDHLKDEKEKLLKEKGENDKSLHLLKKQLSTLYLEVFSMLRDEDGKPYSPSEYSLQQTRDGNVFLVPKSKKPDVKKN

A-counts (NRF2 plus KEAP1) [11]: 2970 A-counts
A-counts (NRF2 plus KEAP1) [12]: 1750 A-counts
A-counts (NRF2 plus KEAP1) [13]: 3160 A-counts
B2: NRF2 isoform 1 (I86V full-length), FLAG-tagged (protein)
chain: B1 chain with I86V

A-counts [14]: 1440 A-counts
A-counts [15]: 1500 A-counts
Binding Percentage (%) [16]: 63.5%
S/N [17]: 3.4
A-counts [18]: 1730 A-counts
A-counts [19]: 696 A-counts
Standard Deviation (of binding percentage) [20]: 7.2%
B3: NRF2 isoform 1 (I28V full-length), FLAG-tagged (protein)
chain: B1 chain with I28V

S/N [21]: 1
A-counts (NRF2 plus KEAP1) [22]: 1070 A-counts
A-counts (NRF2 plus KEAP1) [23]: 705 A-counts
A-counts (NRF2 plus KEAP1) [24]: 1280 A-counts
Average Binding [25]: 69.8%
Avg. Reduction in Binding [25]: 30.2%
S/N [26]: 1.8
S/N [27]: 2.5
B4: NRF2 isoform 1 (Q75R full-length), FLAG-tagged (protein)
chain: B1 chain with Q75R
